Test results as given in patent publication US11653679B2, “High-purity steviol glycosides” (PureCircle Sdn Bhd, priority 2014, dated 2023).
Where two headings read alike, the source gives them in different places.

Legend:
Format in all cases: biochemical
[1] = Catalytic test Rebaudioside A to Rebaudioside D with in-vitro expressed UDP-glucosyltransferases (Examples 20, 21), HPLC
Protocol: The prepared expression medium mix was added to the plasmid solution and the solution was allowed to incubate at 30° C. for 3 hours while mixing the mixture every 45 minutes. 5 μL of the mixture was frozen whereas the remainder was used for the catalytic test for the conversion of Rebaudioside A to Rebaudioside D.
(§1) 430 μL of a reaction mixture containing 0.5 mM Rebaudioside A, 3 mM MgCl2, 50 mM phosphate buffer (pH7.2) and 2.5 mM UDP-glucose was added to a 1.5 mL sterile microtube. 52 μl of the enzyme expression medium was added and the resulting mixture was allowed to react at 30° C. for 24 hours. 125 μL samples were taken after 2 hours, 16 hours and 24 hours and added to a 115 μL of 60% methanol and 10 μL of 2 N H2SO4. The quenched sample was centrifuged at 18,000 g for 2 minutes at RT. 200 μL was transferred to an HPLC vial and analyzed.
The HPLC assay was performed as follows:
as §1, with “μL” for “μl”, “to” for “to an”
(§2) The HPLC assay was performed as described in EXAMPLE 20.

[2] = Activity of in-vivo produced enzymes for transformation of Rebaudioside A (Example 22)
Protocol: Activity tests were performed at 5 mL scale with 1,000 μL of thawed lysate for the transformation of Rebaudioside A using 0.5 mM of substrate, 2.5 mM of UDP-Glucose and 3 mM MgCl2 in 50 mM Sodium Phosphate buffer at pH 7.2. Samples were taken and analyzed by HPLC.
as §2

[3] = LC-MS of reaction mixtures of GI No. 460409128 with Rebaudioside A (Example 23)
Protocol: The reaction mixtures representing GI No. 460409128, particularly the sample “12400 S115N05A7 T24h 130627ABA” of EXAMPLE 20 (hereinafter S115N05A7), and the sample “12400 S129N04 T45h 130712ABA” of EXAMPLE 22 (hereinafter S129N04) were additionally assayed by LC-MS to identify the unknown glycosides. An Agilent 1200 series HPLC system, equipped with binary pump (G1312B), autosampler (G1367D), thermostatted column compartment (G1316B), DAD detector (G1315C), connected with Agilent 6110A MSD, and interfaced with “LC/MSD Chemstation” software, was used.
The compound observed on LCMS system at 3.5 min, corresponds to compound “Unknown@4.508” in sample “S115N05A7” (EXAMPLE 20), and compound “Unknown@RT4.526” in sample “S129N04” (EXAMPLE 22).
The ratio of these compounds and the LCMS chromatograms are provided below.

[4] = Activity for Stevioside to Rebaudioside E conversion with UGTSL, UGTSL2, UGTLB (Examples 28, 32); conditions: 600 μL lysate, based on initial concentration of Stevioside; for Rebaudioside E formation: 0.5 mM Stevioside; for Stevioside conv. (reaction time): 0.5 mM substrate
Protocol: (§3) Activity tests were performed at 3 mL scale with 600 μL of lysate for the transformation of Stevioside using 0.5 mM of substrate, 2.5 mM of UDP-Glucose and 3 mM MgCl2 in 50 mM Sodium Phosphate buffer at pH 7.2. Samples were taken and analyzed by HPLC. HPLC Analysis. The HPLC assay was performed as described in EXAMPLE 20.
as §3, with “HPLC.” for “HPLC. HPLC Analysis.”, “corresponding chromatograms are depicted” for “HPLC assay was performed as described”, “FIG. 63a.” for “EXAMPLE 20.”

[5] = Activity for Rubusoside to Rebaudioside E conversion with UGTSL, UGTSL2, UGTLB (Examples 29, 32); conditions: 600 μL lysate, based on initial concentration of Rubusoside; for Rebaudioside E formation: 0.5 mM Rubusoside; for Rubusoside conv. (reaction time): 0.5 mM substrate
Protocol: as §3, with “Rubusoside” for “Stevioside”, “HPLC.” for “HPLC. HPLC Analysis.”
(§4) Activity tests were performed at 3 mL scale with 600 μL of lysate for the transformation of Rubusoside using 0.5 mM of substrate, 2.5 mM of UDP-Glucose and 3 mM MgCl2 in 50 mM Sodium Phosphate buffer at pH 7.2. Samples were taken and analyzed by HPLC. The corresponding chromatograms are depicted in FIG. 63b.

[6] = Rubusoside conversion products with UGTSL, UGTSL2, UGTLB by LCMS (Example 33); conditions: reaction time UGTSL2 2 hrs, UGTLB 5 hrs, UGTSL 45 hrs
Protocol: (§5) Conversion of stevioside with UGTSL and UGTSL2 was conducted in similar manner to Example 28, and the conversion of rubusoside with UGTSL and UGTSL2 was conducted similarly to Example 29. Conversions of rubusoside and stevioside with UGTLB was conducted similarly to Example 32.
(§6) The reaction mixtures were analyzed by LCMS to determine all reaction products.

[7] = Stevioside conversion products with UGTSL, UGTSL2, UGTLB by LCMS (Example 33); conditions: reaction time UGTSL2 2 hrs, UGTLB 2 hrs, UGTSL 22 hrs
Protocol: as §5, §6

[8] = Activity for Rebaudioside A to Rebaudioside D conversion with UGTSL2, UGTLB (Examples 30, 32); conditions: UGTLB, 22 h., 600 μL lysate, based on initial concentration of Rebaudioside A
Protocol: as §3, with “60” for “600”, “Rebaudioside A” for “Stevioside”, “HPLC.” for “HPLC. HPLC Analysis.”
as §4, with “Rebaudioside A” for “Rubusoside”, “chromatogram after 23 h. of reaction is” for “chromatograms are”, “63c.” for “63b.”

[9] = 0.5 mM Rebaudioside A, 30° C., HPLC

B1: gi460409128_XP_004249992.1: cyanidin-3-O-glucoside 2-O-glucuronosyltransferase-like [Solanum lycopersicum], SEQ ID NO:5; S129N04 is its Example 22 reaction sample (protein, listed as Solanum lycopersicum)
chain: MSPKLHKELFFHSLYKKTRSNHTMATLKVLMFPFLAYGHISPYLNVAKKLADRGFLIYFCSTPINLKSTIEKIPEKYADSIHLIELHLPELPQLPPHYHTTNGLPPNLNQVLQKALKMSKPNFSKILQNLKPDLVIYDILQRWAKHVANEQNIPAVKLLTSGAAVFSYFFNVLKKPGVEFPFPGIYLRKIEQVRLSEMMSKSDKEKELEDDDDDDDLLVDGNMQIMLMSTSRTIEAKYIDFCTALTNWKVVPVGPPVQDLITNDVDDMELIDWLGTKDENSTVFVSFGSEYFLSKEDMEEVAFALELSNVNFIWVARFPKGEERNLEDALPKGFLERIGERGRVLDKFAPQPRILNHPSTGGFISHCGWNSAMESIDFGVPIIAMPMHLDQPMNARLIVELGVAVEIVRDDDGKIHRGEIAETLKGVITGKTGEKLRAKVRDISKNLKTIRDEEMDAAAEELIQLCRNGN
With B1 the “Steviol glycoside conversion in reaction mixture, Reb A” value (“Steviol glycoside conversion … Reb A” below) [1, 9] was 46.7 % area, the “Steviol glycoside conversion in reaction mixture, Reb UNK (later identified as reb D2)” value [1, 9] was 23.3 % area and the “Conversion RebA to RebD” value ([1]; in-vitro expressed enzyme) was “Active”. For the same molecule, the “Conversion after 45 hrs.” value ([2]; 0.5 mM, in-vivo produced enzyme lysate) was 62.1%, the “Reb D selectivity” value ([2]; after 45 hrs.) was 43.6% and the “Steviol glycoside conversion … Reb A” value [3] was 49.00 % area. The “Steviol glycoside conversion in reaction mixture, Reb D” value [3] was 23.73 % area, the “Steviol glycoside conversion in reaction mixture, Reb UNK (reb D2)” value [3] was 21.22 % area and the “Steviol glycoside conversion in reaction mixture, Unknown@RT3.5 (reb M2)” value [3] was 6.05 % area. The “Steviol glycoside conversion … Reb A” value ([3]; listed as S115N05A7) was 53.24 % area, the “Steviol glycoside conversion in reaction mixture, Reb D” value ([3]; listed as S115N05A7) was 20.35 % area and the “Steviol glycoside conversion in reaction mixture, Reb UNK (reb D2)” value ([3]; listed as S115N05A7) was 19.93 % area. The “Steviol glycoside conversion in reaction mixture, Unknown@RT3.5 (reb M2)” value ([3]; listed as S115N05A7) was 6.47 % area, the “Rebaudioside E formation” value ([4]; reaction time UGTSL 22 h., UGTSL2 2 h.) was 46% and the “Stevioside conv. (reaction time)” value ([4]; reaction time UGTSL 22 h., UGTSL2 2 h., 2.5 mM UDP-Glucose, pH 7.2) was 74% (22 h.). The “Rebaudioside E formation” value ([5]; reaction time UGTSL 45 h., UGTSL2 2 h.) was 27%, the “Rubusoside conv. (reaction time)” value ([5]; reaction time UGTSL 45 h., UGTSL2 2 h., 2.5 mM UDP-Glucose, pH 7.2) was 70% (45 h.) and the “LC-MS, peak area ratio (%): REb E” value [6] was 35.88%. The “LC-MS, peak area ratio (%): Reb D” value [6] was 3.45%, the “LC-MS, peak area ratio (%): Rub” value [6] was 7.82% and the “LC-MS, peak area ratio (%): Stev” value [6] was 2.37%. The “LC-MS, peak area ratio (%): Unknown peak #1 (MW804) RT 30.70 min” value [6] was 20.38%, the “LC-MS, peak area ratio (%): Unknown peak #2 (MW804) RT 49.50 min” value [6] was 27.75% and the “LC-MS, peak area ratio (%): Unknown peak #3 (MW804) RT 50.40 min” value [6] was 2.35%. The “LC-MS, peak area ratio (%): Reb D” value [7] was 0.54%, the “LC-MS, peak area ratio (%): Reb E” value [7] was 49.68% and the “LC-MS, peak area ratio (%): Stev” value [7] was 25.24%. For the same molecule, the “LC-MS, peak area ratio (%): Unknown peak #1 (MW966) RT = 22.60 min” value [7] was 3.97% and the “LC-MS, peak area ratio (%): Unknown peak #2 (MW966) RT = 26.50 min” value [7] was 20.56%.

B2: UGTLB: UDP-glucosyltransferase, Lycium barbarum, SEQ ID NO:10 (protein, listed as Escherichia coli)
chain: MGTEVTVHKNTLRVLMFPWLAYGHISPFLNVAKKLVDRGFLIYLCSTAINLKSTIKKIPEKYSDSIQLIELHLPELPELPPHYHTTNGLPPHLNHTLQKALKMSKPNFSKILQNLKPDLVIYDLLQQWAEGVANEQNIPAVKLLTSGAAVLSYFFNLVKKPGVEFPFPAIYLRKNELEKMSELLAQSAKDKEPDGVDPFADGNMQVMLMSTSRIIEAKYIDYFSGLSNWKVVPVGPPVQDPIADDADEMELIDWLGKKDENSTVFVSFGSEYFLSKEDREEIAFGLELSNVNFIWVARFPKGEEQNLEDALPKGFLERIGDRGRVLDKFAPQPRILNHPSTGGFISHCGWNSVMESVDFGVPIIAMPIHLDQPMNARLIVELGVAVEIVRDDYGKIHREEIAEILKDVIAGKSGENLKAKMRDISKNLKSIRDEEMDTAAEELIQLCKNSPKLK
For B2, the “Rebaudioside E formation” value ([4]; UGTLB, 22 h.) was 3%, the “Stevioside conv. (reaction time)” value ([4]; UGTLB, 22 h.) was 89% (22 h.) and the “Rebaudioside E formation” value ([5]; UGTLB, 5 h.) was 4%. For the same molecule, the “Rubusoside conv. (reaction time)” value ([5]; UGTLB, 5 h.) was 65% (5 h.), the “Rebaudioside D formation” value ([8]; 0.5 mM Rebaudioside A) was 10% and the “Rebaudioside A conv. (reaction time)” value ([8]; 0.5 mM substrate) was 72% (22 h.). For the same molecule, the “LC-MS, peak area ratio (%): REb E” value [6] was 9.21%, the “LC-MS, peak area ratio (%): Reb D” value [6] was 1.29% and the “LC-MS, peak area ratio (%): Rub” value [6] was 13.49%. The “LC-MS, peak area ratio (%): Unknown peak #1 (MW804) RT 30.70 min” value [6] was 4.07%, the “LC-MS, peak area ratio (%): Unknown peak #2 (MW804) RT 49.50 min” value [6] was 66.67% and the “LC-MS, peak area ratio (%): Unknown peak #3 (MW804) RT 50.40 min” value [6] was 5.27%. The “LC-MS, peak area ratio (%): Reb E” value [7] was 3.12%, the “LC-MS, peak area ratio (%): Stev” value [7] was 43.11% and the “LC-MS, peak area ratio (%): Unknown peak #2 (MW966) RT = 26.50 min” value [7] was 53.78%.
